Experimental findings from patent US20190022244A1 (BIOASIS TECHNOLOGIES, published 2019) are described below.

The target of this assay is T1, human N-acetylated-alpha-linked acidic dipeptidase-like protein 2 (NAALADL2) (human, UniProt Q58DX5 1-795).
T1 construct: also called human NAALADL2 receptor; NAALADL2 polypeptide
T1 sequence: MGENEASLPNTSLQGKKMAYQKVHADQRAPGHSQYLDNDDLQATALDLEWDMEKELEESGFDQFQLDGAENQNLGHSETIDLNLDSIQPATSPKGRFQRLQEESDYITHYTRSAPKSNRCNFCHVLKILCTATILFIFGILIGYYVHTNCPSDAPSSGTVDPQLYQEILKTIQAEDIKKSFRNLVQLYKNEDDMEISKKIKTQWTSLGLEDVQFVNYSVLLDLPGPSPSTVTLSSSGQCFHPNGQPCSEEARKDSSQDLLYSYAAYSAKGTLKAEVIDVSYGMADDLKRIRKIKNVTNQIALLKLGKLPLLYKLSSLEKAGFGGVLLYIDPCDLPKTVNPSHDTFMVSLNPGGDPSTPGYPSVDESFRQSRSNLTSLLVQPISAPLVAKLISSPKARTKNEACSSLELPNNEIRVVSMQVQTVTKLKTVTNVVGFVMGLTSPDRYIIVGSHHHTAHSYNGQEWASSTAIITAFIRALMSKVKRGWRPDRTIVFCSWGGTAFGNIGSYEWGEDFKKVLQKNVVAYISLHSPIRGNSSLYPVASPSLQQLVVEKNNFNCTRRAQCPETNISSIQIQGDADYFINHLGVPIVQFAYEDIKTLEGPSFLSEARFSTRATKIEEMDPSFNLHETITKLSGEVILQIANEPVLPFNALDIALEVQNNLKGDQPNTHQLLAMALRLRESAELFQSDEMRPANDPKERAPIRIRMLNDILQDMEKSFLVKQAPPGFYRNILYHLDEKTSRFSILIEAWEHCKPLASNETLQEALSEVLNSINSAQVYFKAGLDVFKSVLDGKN
Put plainly: EGS cross-linking on U87 cells, then reciprocal immunoprecipitation (anti-MTf L235 or anti-NAALADL2 N18+L18) and immunoblot with the complementary antibody. How it is done:
Cells were pulsed with 1 μl of 7.1 mg/ml a human melanotransferrin (MTf) peptide ([…]; SEQ ID NO:2) and 4 μl of NTA-Fe, and shaken gently at 4° C. for 20 minutes to allow binding. The supernatant was discarded and the cells were washed 2× with 5 ml of PBS at 4° C. Cross-linker solution (6 ml of 3.7 mM EGS; Thermo Scientific, Cat #87786) was added to each flask, and the cells were shaken gently at 4° C. for 2 hours.
The supernatant was discarded, and 2 ml of RIPA buffer with 1X HALT protease inhibitor cocktail was added to lyse the cells and quench the cross-linker. The cells were shaken vigorously at room temperature for 5 minutes, and a cell scraper was used to lyse and completely detach the cell lysate from the plate.
(A western blot detects proteins with antibodies after separation by electrophoresis.)

B1: human melanotransferrin (MTf) peptide (DSSHAFTLDELR; SEQ ID NO:2) (peptide)
peptide: DSSHAFTLDELR
notes: 12-residue fragment of human melanotransferrin (p97); It was pulsed onto U87 cells together with NTA-Fe; also called human MTf peptide; human MTf polypeptide
With B1, the binding result is listed as “binds”.
